{"source": "patent US11643691B2", "about": "“Predictive biomarkers for cancer immunotherapy and methods of using same” (Duke University, priority 2018, dated 2023)", "molecules": {"B1": {"name": "Wnt5a: Recombinant Human/Mouse Wnt5a Protein (R&D Systems) (protein, UniProt P41221 62-380, looked up)", "Protein Wnt-5a": "IIGAQPLCSQLAGLSQGQKKLCHLYQDHMQYIGEGAKTGIKECQYQFRHRRWNCSTVDNTSVFGRVMQIGSRETAFTYAVSAAGVVNAMSRACREGELSTCGCSRAARPKDLPRDWLWGGCGDNIDYGYRFAKEFVDARERERIHAKGSYESARILMNLHNNEAGRRTVYNLADVACKCHGVSGSCSLKTCWLQLADFRKVGDALKEKYDSAAAMRLNSRGKLVQVNSRFNSPTTQDLVYIDPSPDYCVRNESTGSLGTQGRLCNKTSEGMDGCELMCCGRGYDQFKTVQTERCHCKFHWCCYVKCKKCTEIVDQFVCK"}}, "key": {"[1]": {"tested_on": "DCs", "experiment": "Oxygen consumption rate (OCR) / OXPHOS, Seahorse XFe24 flux analysis of murine DCs", "type": "cell-based", "conditions": "DCs pre-treated", "description": "Dendritic Cell Conditioning: DCs were treated with Wnt3a (100 ng/mL), Wnt5a (200 ng/mL), LPS (1 μg/mL), 1-MT (1 mM), 2DG (1 mM), or ETO (100 μM), 2-DG(2-deoxy-d-glucose, 1 mM), Oligomycin (1 μM), succinylacetone (250 μM), or vehicle control either for 24 or 48 hrs prior to their use in both in vitro and in vivo experiments.\nCellular Energy Metabolism Analysis: DC energy metabolism was measured using the XFe24 extracellular flux analyzer (Seahorse Bioscience), with the glycolysis stress test kit and the mitochondrial stress test kit as previously described (Everts et al., 2014, Zhao and Klimecki, 2015). For experiments involving LPS injection, DCs were plated in XFe24 plates (200,000/well in 500p1) and treated with LPS for 48 hours prior to XF analysis. DCs were washed and analyzed in XF media (RPMI without sodium bicarbonate, 10 mM glucose, 1% FBS, 2 mM L-glutamine). ECAR was analyzed in real-time with or without LPS stimulation. For experiments involving BrafV600EPten−/− cell line-derived conditioned media (CM), collected CM was concentrated and desalted with an Amicon Ultra 30K filter according to manufacturer's recommendations (Milipore). Final concentrate was further washed with XF media 3 times, added to DCs immediately prior to OCR analysis. For standard ECAR analysis, XF media (without glucose) was used to wash cells prior to the assay. […]"}, "[2]": {"tested_on": "AMPK", "experiment": "Thr-172 phospho-AMPK immunoblot analysis of DCs", "type": "cell-based, Murine", "conditions": "Wnt5a 200 ng/mL, 24 and 48 hrs", "description": "Data is representative of 3 independent experiments. […] Data is representative of 3 independent experiments. […] Antibodies, Immunoprecipitation, and Immunoblot Analysis: Primary antibodies including CPT1A (Cell signaling), PPAR-γ (Santa Cruz Biotechnology), β-catenin, β-actin (Millipore), p-AMPK(T172)/AMPK (Cell signaling), p-AKT(T308)/Akt (Cell Signaling) were used at 1:1000. Secondary antibodies including goat anti-rabbit IgG-HRP (Millipore) and goat anti-mouse IgG-HRP (Millipore) were used at 1:5000. Cells were lysed in Laemmli sample buffer after treatment and subjected to SDS-polyacrylamide gel electrophoresis and immunoblot analysis. For immunoprecipitation, cells were lysed in radio immunoprecipitation assay (RIPA) buffer [10 mM sodium phosphate (pH 8.0), 150 mM NaCl, 1% Triton X-100, 1% sodium deoxycholate, and 0.1% SDS in the presence of 1 mM DTT, 1 mM phenylmethylsulfonylfluoride, and a protease inhibitor cocktail (Sigma)], precleared with protein A beads, and then incubated with 1 μg of antibody against β-catenin or isotype control IgG with protein A-agarose beads on a rotator overnight at 4° C. After 3 washes with RIPA buffer, immunoprecipitated complexes were eluted in sample buffer by boiling and subjected to immunoblot analysis. Immunoblots were visualized by chemiluminescence substrate (ThermoFisher) and imaged by a ChemiDoc XRSplus system (BioRad)."}, "[3]": {"tested_on": "DC IDO", "experiment": "IDO enzymatic assay (kynurenine in conditioned media by HPLC)", "type": "cell-based, Murine", "conditions": "purified DC cultures or tumor-infiltrating DCs", "description": "IDO enzymatic assay and Hemin assay: DC IDO enzyme activity was measured by the conversion of L-tryptophan to L-kynurenine in conditioned media by HPLC (Pallotta et al., 2011). Intracellular hemin was measured using a colorimetric assay kit (BioVision)."}, "[4]": {"tested_on": "BMDCs", "experiment": "Metabolomics LC-MS of TCA intermediates", "type": "cell-based, Murine", "conditions": "rWnt5a stimulation", "description": "Metabolomics: Metabolites were extracted from 5×106 BMDCs and subjected to LC-MS analysis according to a previously published protocol (Liu et al., 2014a, Liu et al., 2014b). Metabolites were extracted from 5×106 BMDCs from each experimental group (3 mice per group), washed with ice cold PBS, and lysed in 80% (v/v) methanol on dry ice. Cell lysates were frozen at −80° C. for 15 minutes to disrupt cell membrane and quench enzymatic activity. Samples were then thawed on ice, vortexed rigorously to extract metabolites, and then centrifuged at 20,000 g at 4° C. to precipitate proteins and cell debris. Metabolite extracts were then dried using a speed vacuum and subjected to LC-MS analysis (Liu et al., 2014a, Liu et al., 2014b). Data collected from LC-Q exactive MS is processed on Sieve 2.0 (Thermo). For metabolite analysis, theoretical m/z and retention time of 263 known metabolites were used for positive mode, and 197 metabolites were used for negative mode. Data containing detected m/z and relative intensity of different samples were obtained."}, "[5]": {"tested_on": "bone-marrow-derived DCs (BMDCs)", "experiment": "Extracellular lactate assay (surrogate for glycolysis)", "type": "cell-based, Murine", "conditions": "BMDC culture media, 0 to 48 hr", "description": "Lactate measurement: L-Lactate was measured by lactate dehydrogenase conversion of L-lactate+NAD+ to pyruvate+NADH following treatment with […] (Pesce et al., 1975). Lactate standards and samples were read at NADH specific absorbance 340 nm. For lactate measurement in Wnt5a time course, BMDCs were seeded in a 48-well plate at 1 million cell per well. BMDCs were treated with 100 ng/ml of recombinant Wnt5a from 0 to 48 hours. For extracellular lactate determination, 0.5 ml of supernatant media was collected directly from the culture, deproteinized by polyethylene glycol precipitation (25% w/v PEG-8000, sigma), and clarified by centrifugation at 20,000 g for 5 min. […] L-lactate was measured by lactate dehydrogenase (LDH, final 2 U/ml, Sigma) conversion of L-lactate+NAD+(β-Nicotinamide adenine dinucleotide, Sigma) to pyruvate+NADH in Glycine Buffer solution (final concentration Glycine 0.2M, Hydrazine 0.17M to destroy pyruvate allowing reaction to run to complete oxidation of lactate, Chloroform 0.0125%, Sigma). Reaction was incubated at 37° C. for 30 minute (without CO2), L-lactate standards and samples were read at NADH specific absorbance 340 nm (Infinite 200 PRO, Tecan)."}, "[6]": {"tested_on": "DCs", "experiment": "BODIPY and fatty acid uptake assay", "type": "cell-based, Murine", "conditions": "TF2-C12 uptake, BODIPY", "description": "BODIPY and Fatty Acid Uptake Assay: DCs were stained in 0.5 μg/ml BODIPY 493/503 in PBS for 15 min to determine neutral lipid content (Herber et al., 2010). Fatty acid uptake measurement in DCs were performed using a dodecanoic acid fluorescent TF2-C12 fatty acid (Sigma) according to the manufacturer's protocol."}}, "data": [{"molecule": "B1", "values": [{"measurement": "OXPHOS in DCs (OCR)", "setting": "[1]", "value": "effectively promoted OXPHOS in DCs"}, {"measurement": "AMPK activation (Thr-172 phospho-AMPK)", "setting": "[2]", "value": "suppressed AMPK activation"}, {"measurement": "DC IDO enzymatic activity (kynurenine)", "setting": "[3]", "value": "promoted DC IDO enzymatic activity"}, {"measurement": "TCA intermediate metabolites", "setting": "[4]", "value": "increased quantities of many TCA intermediates but a decrease in α-ketoglutarate"}, {"measurement": "lactate production", "setting": "[5]", "value": "suppresses lactate production"}, {"measurement": "DC fatty acid uptake and lipid stores", "setting": "[6]", "value": "enhance DC fatty acid uptake and lipid stores"}]}]}
